The labels stand for the following.
B1: Ornithine decarboxylase antizyme 3 (Homo sapiens), Q9UMX2 (parent)
chain: MPCKRCRPSVYSLSYIKRGKTRNYLYPIWSPYAYYLYCYKYRITLREKMLPRCYKSITYKEEEDLTLQPRSCLQCSESLVGLQEGKSTEQGNHDQLKELYSAGNLTVLATDPLLHQDPVQLDFHFRLTSQTSAHWHGLLCDRRLFLDIPYQALDQGNRESLTATLEYVEEKTNVDSVFVNFQNDRNDRGALLRAFSYMGFEVVRPDHPALPPLDNVIFMVYPLERDVGHLPSEPP
partner: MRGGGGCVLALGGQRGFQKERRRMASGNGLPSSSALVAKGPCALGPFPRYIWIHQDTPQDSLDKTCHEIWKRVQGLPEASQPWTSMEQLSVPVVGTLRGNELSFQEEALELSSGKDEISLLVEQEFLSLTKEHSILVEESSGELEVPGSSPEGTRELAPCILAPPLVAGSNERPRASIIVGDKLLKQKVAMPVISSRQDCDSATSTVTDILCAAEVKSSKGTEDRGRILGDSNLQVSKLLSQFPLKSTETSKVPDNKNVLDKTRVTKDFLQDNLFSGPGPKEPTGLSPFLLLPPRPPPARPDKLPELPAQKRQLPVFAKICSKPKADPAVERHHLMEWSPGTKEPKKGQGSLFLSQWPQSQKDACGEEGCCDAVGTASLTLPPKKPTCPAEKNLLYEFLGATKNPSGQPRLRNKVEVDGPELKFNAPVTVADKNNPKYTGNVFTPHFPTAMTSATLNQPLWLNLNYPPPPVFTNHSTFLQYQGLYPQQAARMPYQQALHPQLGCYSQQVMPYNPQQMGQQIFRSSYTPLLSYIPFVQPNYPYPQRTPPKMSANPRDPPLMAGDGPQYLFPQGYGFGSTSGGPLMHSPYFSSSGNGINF
B2: Pyridine nucleotide-disulfide oxidoreductase domain-containing protein 1 (Homo sapiens), Q8WU10 (parent)
chain: MEAARPPPTAGKFVVVGGGIAGVTCAEQLATHFPSEDILLVTASPVIKAVTNFKQISKILEEFDVEEQSSTMLGKRFPNIKVIESGVKQLKSEEHCIVTEDGNQHVYKKLCLCAGAKPKLICEGNPYVLGIRDTDSAQEFQKQLTKAKRIMIIGNGGIALELVYEIEGCEVIWAIKDKAIGNTFFDAGAAEFLTSKLIAEKSEAKIAHKRTRYTTEGRKKEARSKSKADNVGSALGPDWHEGLNLKGTKEFSHKIHLETMCEVKKIYLQDEFRILKKKSFTFPRDHKSVTADTEMWPVYVELTNEKIYGCDFIVSATGVTPNVEPFLHGNSFDLGEDGGLKVDDHMHTSLPDIYAAGDICTTSWQLSPVWQQMRLWTQARQMGWYAAKCMAAASSGDSIDMDFSFELFAHVTKFFNYKVVLLGKYNAQGLGSDHELMLRCTKGREYIKVVMQNGRMMGAVLIGETDLEETFENLILNQMNLSSYGEDLLDPNIDIEDYFD
partner: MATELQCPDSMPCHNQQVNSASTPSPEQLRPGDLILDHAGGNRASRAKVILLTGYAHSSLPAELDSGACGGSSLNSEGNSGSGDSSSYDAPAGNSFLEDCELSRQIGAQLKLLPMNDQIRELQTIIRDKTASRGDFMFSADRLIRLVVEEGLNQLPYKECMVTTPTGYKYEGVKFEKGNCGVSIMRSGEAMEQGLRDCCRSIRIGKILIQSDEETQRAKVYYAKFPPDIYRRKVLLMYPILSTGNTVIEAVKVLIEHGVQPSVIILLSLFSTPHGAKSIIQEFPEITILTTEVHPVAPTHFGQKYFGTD
B3: Protein LDOC1 (Homo sapiens), O95751 (parent)
chain: MVDELVLLLHALLMRHRALSIENSQLMEQLRLLVCERASLLRQVRPPSCPVPFPETFNGESSRLPEFIVQTASYMLVNENRFCNDAMKVAFLISLLTGEAEEWVVPYIEMDSPILGDYRAFLDEMKQCFGWDDDEDDDDEEEEDDY
partner: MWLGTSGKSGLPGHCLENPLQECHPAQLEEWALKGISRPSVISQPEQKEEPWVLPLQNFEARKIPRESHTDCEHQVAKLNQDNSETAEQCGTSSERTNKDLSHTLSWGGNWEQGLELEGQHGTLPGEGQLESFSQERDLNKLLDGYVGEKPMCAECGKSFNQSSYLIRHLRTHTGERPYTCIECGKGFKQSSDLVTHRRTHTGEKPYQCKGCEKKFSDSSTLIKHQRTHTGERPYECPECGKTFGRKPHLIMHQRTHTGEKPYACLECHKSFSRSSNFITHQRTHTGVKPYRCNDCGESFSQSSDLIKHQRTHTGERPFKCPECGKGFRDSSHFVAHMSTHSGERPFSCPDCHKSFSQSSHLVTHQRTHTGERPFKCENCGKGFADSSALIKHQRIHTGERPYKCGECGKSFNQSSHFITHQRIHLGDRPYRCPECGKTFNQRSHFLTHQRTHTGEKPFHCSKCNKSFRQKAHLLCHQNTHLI
B4: DNA topoisomerase 3-beta-1 (Homo sapiens), O95985 (parent)
chain: MKTVLMVAEKPSLAQSIAKILSRGSLSSHKGLNGACSVHEYTGTFAGQPVRFKMTSVCGHVMTLDFLGKYNKWDKVDPAELFSQAPTEKKEANPKLNMVKFLQVEGRGCDYIVLWLDCDKEGENICFEVLDAVLPVMNKAHGGEKTVFRARFSSITDTDICNAMACLGEPDHNEALSVDARQELDLRIGCAFTRFQTKYFQGKYGDLDSSLISFGPCQTPTLGFCVERHDKIQSFKPETYWVLQAKVNTDKDRSLLLDWDRVRVFDREIAQMFLNMTKLEKEAQVEATSRKEKAKQRPLALNTVEMLRVASSSLGMGPQHAMQTAERLYTQGYISYPRTETTHYPENFDLKGSLRQQANHPYWADTVKRLLAEGINRPRKGHDAGDHPPITPMKSATEAELGGDAWRLYEYITRHFIATVSHDCKYLQSTISFRIGPELFTCSGKTVLSPGFTEVMPWQSVPLEESLPTCQRGDAFPVGEVKMLEKQTNPPDYLTEAELITLMEKHGIGTDASIPVHINNICQRNYVTVESGRRLKPTNLGIVLVHGYYKIDAELVLPTIRSAVEKQLNLIAQGKADYRQVLGHTLDVFKRKFHYFVDSIAGMDELMEVSFSPLAATGKPLSRCGKCHRFMKYIQAKPSRLHCSHCDETYTLPQNGTIKLYKELRCPLDDFELVLWSSGSRGKSYPLCPYCYNHPPFRDMKKGMGCNECTHPSCQHSLSMLGIGQCVECESGVLVLDPTSGPKWKVACNKCNVVAHCFENAHRVRVSADTCSVCEAALLDVDFNKAKSPLPGDETQHMGCVFCDPVFQELVELKHAASCHPMHRGGPGRRQGRGRGRARRPPGKPNPRRPKDKMSALAAYFV
partner: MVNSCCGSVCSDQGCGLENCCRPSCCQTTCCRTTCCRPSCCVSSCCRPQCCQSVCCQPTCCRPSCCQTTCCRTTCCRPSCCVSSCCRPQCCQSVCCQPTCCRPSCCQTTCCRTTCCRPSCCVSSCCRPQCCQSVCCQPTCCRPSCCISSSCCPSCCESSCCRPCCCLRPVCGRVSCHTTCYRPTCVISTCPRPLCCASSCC
B5: N-acetyltransferase 8 (Homo sapiens), Q9UHE5 (parent)
chain: MAPCHIRKYQESDRQWVVGLLSRGMAEHAPATFRQLLKLPRTLILLLGGPLALLLVSGSWLLALVFSISLFPALWFLAKKPWTEYVDMTLCTDMSDITKSYLSERGSCFWVAESEEKVVGMVGALPVDDPTLREKRLQLFHLFVDSEHRRQGIAKALVRTVLQFARDQGYSEVILDTGTIQLSAMALYQSMGFKKTGQSFFCVWARLVALHTVHFIYHLPSSKVGSL
partner: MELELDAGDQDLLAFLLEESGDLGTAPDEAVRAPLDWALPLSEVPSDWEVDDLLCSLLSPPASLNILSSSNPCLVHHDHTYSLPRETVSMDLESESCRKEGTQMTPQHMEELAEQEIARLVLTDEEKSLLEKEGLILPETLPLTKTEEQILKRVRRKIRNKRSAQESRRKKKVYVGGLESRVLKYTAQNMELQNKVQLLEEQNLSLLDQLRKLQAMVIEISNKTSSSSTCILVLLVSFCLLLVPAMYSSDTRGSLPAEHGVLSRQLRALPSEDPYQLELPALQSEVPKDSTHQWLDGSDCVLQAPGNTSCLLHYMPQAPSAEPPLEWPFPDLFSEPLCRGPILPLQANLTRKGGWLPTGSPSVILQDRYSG
B6: Four and a half LIM domains protein 5 (Homo sapiens), Q5TD97 (parent)
chain: MTTAHFYCQYCTASLLGKKYVLKDDSPYCVTCYDRVFSNYCEECKKPIESDSKDLCYKDRHWHEGCFKCTKCNHSLVEKPFAAKDERLLCTECYSNECSSKCFHCKRTIMPGSRKMEFKGNYWHETCFVCENCRQPIGTKPLISKESGNYCVPCFEKEFAHYCNFCKKVITSGGITFCDQLWHKECFLCSGCRKDLCEEQFMSRDDYPFCVDCYNHLYANKCVACSKPISGLTGAKFICFQDSQWHSECFNCGKCSVSLVGKGFLTQNKEIFCQKCGSGMDTDI
partner: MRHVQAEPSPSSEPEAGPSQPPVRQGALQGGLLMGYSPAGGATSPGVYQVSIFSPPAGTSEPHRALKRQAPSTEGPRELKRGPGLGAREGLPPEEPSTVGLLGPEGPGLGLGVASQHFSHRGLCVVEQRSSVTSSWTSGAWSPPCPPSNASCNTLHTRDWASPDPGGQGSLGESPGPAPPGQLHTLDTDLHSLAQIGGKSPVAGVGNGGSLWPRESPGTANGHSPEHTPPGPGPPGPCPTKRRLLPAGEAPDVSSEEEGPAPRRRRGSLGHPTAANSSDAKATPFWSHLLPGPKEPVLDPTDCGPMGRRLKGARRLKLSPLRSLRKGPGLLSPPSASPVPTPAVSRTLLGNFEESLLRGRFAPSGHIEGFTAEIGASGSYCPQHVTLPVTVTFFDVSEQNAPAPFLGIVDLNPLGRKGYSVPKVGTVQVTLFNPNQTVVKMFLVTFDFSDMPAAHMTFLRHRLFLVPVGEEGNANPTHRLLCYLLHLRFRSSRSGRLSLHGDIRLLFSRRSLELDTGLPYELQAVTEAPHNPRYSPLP

Six variants from IntAct's records for PubMed 31515488 can be followed below.

The first test covers variants of B1. To be noted: with ca094_human C1orf94, Q6P1W5.
Regarding V174A, the “effect of a mutation on the interaction” value is “disrupting interaction strength”.

The variants in the next test derive from B2. Particulars: with upp_human UPRT.
For R374K, the “effect of a mutation on the interaction” value was “with no effect”.

Variants of B3 are the subject of another test. Particulars: with zn774_human ZNF774, Q6NX45.
In the case of L12H, the “effect of a mutation on the interaction” value is recorded as “disrupting interaction strength”.

Variants of B4 are the subject of the next test. To be noted: with kr412_human KRTAP4-12, Q9BQ66.
R267W: the “effect of a mutation on the interaction” value is “with no effect”.

The variants in another test derive from B5. To be noted: with creb3_human CREB3, O43889.
As for F143S, the “effect of a mutation on the interaction” value is on record as “with no effect”.

The variants in another test derive from B6. To be noted: with atosb_human ATOSB.
Consider R204G, for which the “effect of a mutation on the interaction” value is “with no effect”.
